Consider 1 substance from patent publication US20210347867A1.

The target in one assay is amyloid peptide AβpE3-42 (UniProt P05067). Nature of the assay: ELISA, plate coated with AβpE3-42, antibody titrated, signal as % Max. In general terms: In an ELISA, binding on a coated surface is turned into a signal by an enzyme label.
The next assay addresses amyloid peptide Aβ1-42 (UniProt P05067). The experiment in a line: ELISA, plate coated with Aβ1-42 (target by legend paragraph 23), antibody titrated, signal as % Max.

amyloid peptide AβpE3-42, sequence (P05067 674-713 limits assumed): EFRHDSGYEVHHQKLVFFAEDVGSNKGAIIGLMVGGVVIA
amyloid peptide Aβ1-42, sequence (P05067 672-713 limits assumed): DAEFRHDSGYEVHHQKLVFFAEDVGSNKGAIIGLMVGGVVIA

In general, EC50 refers to the midpoint of the concentration-response curve. Lower therefore signals a more potent agent. Turning to Solineuzumab (antibody), the EC50 was found to be 0.15 µg/mL in the assay with amyloid peptide AβpE3-42 and 0.22 µg/mL with amyloid peptide Aβ1-42.
